From publication PMC12441119 (Cell Discovery, 2025) come the findings set out here.

As usually defined, the Kd is the equilibrium constant for the complex coming apart. Lower therefore signals higher affinity.

T1: HOIP (residues 480–1072) (UniProt Q96EP0 480-1072)
T1 construct: source: E. coli BL21 (DE3), purified (glutathione resin, SEC)
T1 sequence (looked up): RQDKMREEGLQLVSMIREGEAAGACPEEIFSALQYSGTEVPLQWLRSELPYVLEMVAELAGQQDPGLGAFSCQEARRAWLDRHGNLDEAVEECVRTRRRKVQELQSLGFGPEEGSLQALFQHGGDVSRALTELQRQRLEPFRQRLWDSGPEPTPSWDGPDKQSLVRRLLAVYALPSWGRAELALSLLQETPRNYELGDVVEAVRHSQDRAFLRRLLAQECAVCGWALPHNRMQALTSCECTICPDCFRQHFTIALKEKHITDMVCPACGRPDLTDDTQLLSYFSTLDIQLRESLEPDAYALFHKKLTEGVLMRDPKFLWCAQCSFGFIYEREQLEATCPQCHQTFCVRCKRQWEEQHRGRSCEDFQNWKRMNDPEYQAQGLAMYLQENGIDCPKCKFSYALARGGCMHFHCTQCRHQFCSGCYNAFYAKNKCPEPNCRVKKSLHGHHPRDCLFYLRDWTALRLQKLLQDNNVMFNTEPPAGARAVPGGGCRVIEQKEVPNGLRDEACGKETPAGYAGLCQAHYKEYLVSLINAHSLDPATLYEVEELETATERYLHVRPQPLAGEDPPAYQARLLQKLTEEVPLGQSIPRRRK

B1: STK4 (residues 1–326) K59R (domain or fragment, human, UniProt Q13043 1-326, looked up)
chain: METVQLRNPPRRQLKKLDEDSLTKQPEEVFDVLEKLGEGSYGSVYKAIHKETGQIVAIRQVPVESDLQEIIKEISIMQQCDSPHVVKYYGSYFKNTDLWIVMEYCGAGSVSDIIRLRNKTLTEDEIATILQSTLKGLEYLHFMRKIHRDIKAGNILLNTEGHAKLADFGVAGQLTDTMAKRNTVIGTPFWMAPEVIQEIGYNCVADIWSLGITAIEMAEGKPPYADIHPMRAIFMIPTNPPPTFRKPELWSDNFTDFVKQCLVKSPEQRATATQLLQHPFVRSAKGVSILRDLINEAMDVKLKRQESQQREVDQDDEENSEEDEMD
notes: also called KD; source: E. coli BL21 (DE3), purified (Ni-NTA, SEC)
B2: STK4 (residues 1–487) K59R (enzyme, human, UniProt Q13043 1-487, looked up)
chain: METVQLRNPPRRQLKKLDEDSLTKQPEEVFDVLEKLGEGSYGSVYKAIHKETGQIVAIRQVPVESDLQEIIKEISIMQQCDSPHVVKYYGSYFKNTDLWIVMEYCGAGSVSDIIRLRNKTLTEDEIATILQSTLKGLEYLHFMRKIHRDIKAGNILLNTEGHAKLADFGVAGQLTDTMAKRNTVIGTPFWMAPEVIQEIGYNCVADIWSLGITAIEMAEGKPPYADIHPMRAIFMIPTNPPPTFRKPELWSDNFTDFVKQCLVKSPEQRATATQLLQHPFVRSAKGVSILRDLINEAMDVKLKRQESQQREVDQDDEENSEEDEMDSGTMVRAVGDEMGTVRVASTMTDGANTMIEHDDTLPSQLGTMVINAEDEEEEGTMKRRDETMQPAKPSFLEYFEQKEKENQINSFGKSVPGPLKNSSDWKIPQDGDYEFLKSWTVEDLQKRLLALDPMMEQEIEEIRQKYQSKRQPILDAIEAKKRRQQNF
notes: The tag could be cut by HRV 3C protease 'if desired'; also called kinase-dead full-length STK4; MST1; source: E. coli BL21 (DE3), purified (Ni-NTA, SEC)
B3: HOIP (residues 697–852) (domain or fragment, UniProt Q96EP0 697-852, looked up)
chain: QECAVCGWALPHNRMQALTSCECTICPDCFRQHFTIALKEKHITDMVCPACGRPDLTDDTQLLSYFSTLDIQLRESLEPDAYALFHKKLTEGVLMRDPKFLWCAQCSFGFIYEREQLEATCPQCHQTFCVRCKRQWEEQHRGRSCEDFQNWKRMND
notes: The limits are printed for the M1-8Ub experiment; for the STK4 experiment the text says only 'the RING1-IBR region of HOIP'; also called HOIP RING1-IBR; RING1-IBR region; source: E. coli BL21 (DE3), purified (glutathione resin, SEC)
B4: HOIP RING1 (residues 697–793) T731A (domain or fragment, UniProt Q96EP0 697-793, looked up)
chain: QECAVCGWALPHNRMQALTSCECTICPDCFRQHFAIALKEKHITDMVCPACGRPDLTDDTQLLSYFSTLDIQLRESLEPDAYALFHKKLTEGVLMRD
notes: source: E. coli BL21 (DE3), purified
B5: HOIP (residues 697–1072) S1066E (domain or fragment, UniProt Q96EP0 697-1072, looked up)
chain: QECAVCGWALPHNRMQALTSCECTICPDCFRQHFTIALKEKHITDMVCPACGRPDLTDDTQLLSYFSTLDIQLRESLEPDAYALFHKKLTEGVLMRDPKFLWCAQCSFGFIYEREQLEATCPQCHQTFCVRCKRQWEEQHRGRSCEDFQNWKRMNDPEYQAQGLAMYLQENGIDCPKCKFSYALARGGCMHFHCTQCRHQFCSGCYNAFYAKNKCPEPNCRVKKSLHGHHPRDCLFYLRDWTALRLQKLLQDNNVMFNTEPPAGARAVPGGGCRVIEQKEVPNGLRDEACGKETPAGYAGLCQAHYKEYLVSLINAHSLDPATLYEVEELETATERYLHVRPQPLAGEDPPAYQARLLQKLTEEVPLGQEIPRRRK
notes: also called phosphomimic S1066E mutant; source: E. coli BL21 (DE3), purified
B6: HOIP (residues 697–1072) (domain or fragment, UniProt Q96EP0 697-1072, looked up)
chain: B5 chain with E370S
notes: also called RING1-IBR-RING2-LDD; HOIP RBR-LDD; source: E. coli BL21 (DE3), purified (glutathione resin, SEC)
B7: STK4 (residues 11–326) K59R (domain or fragment, human, UniProt Q13043 11-326, looked up)
chain: RRQLKKLDEDSLTKQPEEVFDVLEKLGEGSYGSVYKAIHKETGQIVAIRQVPVESDLQEIIKEISIMQQCDSPHVVKYYGSYFKNTDLWIVMEYCGAGSVSDIIRLRNKTLTEDEIATILQSTLKGLEYLHFMRKIHRDIKAGNILLNTEGHAKLADFGVAGQLTDTMAKRNTVIGTPFWMAPEVIQEIGYNCVADIWSLGITAIEMAEGKPPYADIHPMRAIFMIPTNPPPTFRKPELWSDNFTDFVKQCLVKSPEQRATATQLLQHPFVRSAKGVSILRDLINEAMDVKLKRQESQQREVDQDDEENSEEDEMD
notes: Monomer-dimer equilibrium in solution; dimer in the crystal; also called STK4 KD; source: E. coli BL21 (DE3), purified (Ni-NTA, SEC)

Numbering of substitutions follows the chain as printed. Names and notes keep the numbering of the source.

In the data set “HOIP (residues 697–1072)” the target is B6. Kind of data set: SEC; each protein alone and the mixture at matched concentrations on Superdex 200 Increase 10/300 GL or Superdex 75 Increase 10/300 GL; a forward shift or increase of the peak read qualitatively; fractions on SDS-PAGE (Fig. 1c: 20 μM HOIP RING2-LDD, 30 μM STK4 KD, Superdex 75 Increase). The following applies: both partners purified. (In general: SEC sorts molecules by how far they enter the pores of the column.)

The target in the next data set is T1, HOIP (residues 480–1072). The description is as above. The following applies: both partners purified.
Another data set has as its target T2, M1-8Ub (UniProt P0CG48 1-76; P0CG48 1-76; P0CG48 1-76; P0CG48 1-76; P0CG48 1-76; P0CG48 1-76; …).
T2 construct: ubiquitin, unit 1 of 8, units joined head to tail by peptide bonds (M1-linked); ubiquitin, unit 2 of 8; ubiquitin, unit 3 of 8; ubiquitin, unit 4 of 8; ubiquitin, unit 5 of 8; ubiquitin, unit 6 of 8; ubiquitin, unit 7 of 8; ubiquitin, unit 8 of 8; also called linear octa-ubiquitin; polyubiquitin chain; source: E. coli BL21 (DE3), purified
Described as above. The note with it: both partners purified.

A further data set addresses T3, UBE2L3 (human, UniProt P68036 1-154).
T3 construct: UBE2L3 (E2), human; source: E. coli, purified
The description is as above. The note with it: both partners purified.

The next data set addresses T4, linear di-Ub (M1-2Ub) (UniProt P0CG48 1-76; P0CG48 1-76).
T4 construct: ubiquitin, unit 1 of 2, units joined head to tail by peptide bonds (M1-linked); ubiquitin, unit 2 of 2; source: E. coli BL21 (DE3), purified
Described as above. The note with it: both partners purified.

The target in another data set is T5, linear tetra-Ub (M1-4Ub) (UniProt P0CG48 1-76; P0CG48 1-76; P0CG48 1-76; P0CG48 1-76).
T5 construct: ubiquitin, unit 1 of 4, units joined head to tail by peptide bonds (M1-linked); ubiquitin, unit 2 of 4; ubiquitin, unit 3 of 4; ubiquitin, unit 4 of 4; source: E. coli BL21 (DE3), purified
The data set is described as above. The following applies: both partners purified.

Data set [1] concerns the target B2. Description: ITC; MicroCal PEAQ-ITC, 25 °C; 20 mM Tris-HCl pH 7.5, 100 mM NaCl, 1 mM DTT; ~50 μM in the cell, ~500 μM in the syringe; one-site binding model. The following applies: both partners purified. (Isothermal titration calorimetry measures the heat released or taken up as one component is titrated into another.)
Data set [2] deals with the molecule itself. Description: AUC; sedimentation velocity, 42,000 rpm, 20 °C, c(s) distribution (SEDFIT); mixtures of HOIP RING2-LDD with STK4 KD at molar ratios 1:1 or 1:5.

T3 sequence (P68036 whole entry): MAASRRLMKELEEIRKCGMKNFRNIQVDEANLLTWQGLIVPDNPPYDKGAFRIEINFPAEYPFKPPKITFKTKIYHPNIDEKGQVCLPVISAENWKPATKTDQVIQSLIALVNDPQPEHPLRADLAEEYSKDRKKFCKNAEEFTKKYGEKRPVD

On to B1, for which, in the data set with HOIP (residues 697–1072), the binding result is recorded as “binds”.
For the molecule B2, the binding result with HOIP (residues 480–1072) is listed as “binds”.
As for B3, the binding result in the data set with M1-8Ub is reported as “binds”.
Regarding B4, the binding result in the data set with UBE2L3 is “binds”.
For the molecule B5, the binding result with linear di-Ub (M1-2Ub) and with linear tetra-Ub (M1-4Ub) was “binds” throughout.
For B6, the Kd in data set [1] was approximately 102 µM.
Consider B7, for which, in data set [2], the binding result is recorded as “binds”.
